Assay results: the supplement of paper PMC9112550, “Optimization of the antimicrobial peptide Bac7 by deep mutational scanning” (BMC Biology, 2022)

Tested on: Escherichia coli TOP10
Experiment: shrunken log2 fold change of peptide-encoding DNA abundance (4.5 h post-induction vs induction); higher = less antimicrobial activity (less host growth inhibition)
Details: time post-induction: 4.5 h; library: site-saturation at positions 5, 18, 19, 20
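Note: peptides expressed intracellularly from a pBAD plasmid library in pooled LB shake-flask culture, induced with 0.3% L-arabinose, DNA abundance read by NGS, three biological replicates, DESeq2 with apeglm shrinkage.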

| Sequence | shrunken log2 fold change |
| --- | --- |
| RRIRSRPPRLPRPRPRPRMYPRP | -0.113 |
| RRIRSRPPRLPRPRPRPRNNPRP | -0.212 |
| RRIRSRPPRLPRPRPRPRNSPRP | -0.264 |
| RRIRSRPPRLPRPRPRPRQHPRP | 0.169 |
| RRIRSRPPRLPRPRPRPRQRPRP | 0.293 |
| RRIRSRPPRLPRPRPRPRRDPRP | 0.297 |
| RRIRSRPPRLPRPRPRPRRVPRP | 0.452 |
| RRIRSRPPRLPRPRPRPRSFPRP | 0.124 |
| RRIRSRPPRLPRPRPRPRSSPRP | -0.269 |
| RRIRSRPPRLPRPRPRPRTSPRP | 0.211 |
| RRIRSRPPRLPRPRPRPRVQPRP | -0.25 |
| RRIRSRPPRLPRPRPRPRWEPRP | 0.275 |
| RRIRSRPPRLPRPRPRPRWWPRP | 1.26 |
| RRIRSRPPRLPRPRPRPRYIPRP | -0.707 |
| RRIRSRPPRLPRPRPRPSAKPRP | 2.05 |
| RRIRSRPPRLPRPRPRPSANPRP | -0.0142 |
| RRIRSRPPRLPRPRPRPSAVPRP | 0.091 |
| RRIRSRPPRLPRPRPRPSCHPRP | -0.245 |
| RRIRSRPPRLPRPRPRPSCYPRP | -0.511 |
| RRIRSRPPRLPRPRPRPSDEPRP | -0.673 |
| RRIRSRPPRLPRPRPRPSDMPRP | -0.373 |
| RRIRSRPPRLPRPRPRPSENPRP | -0.113 |
| RRIRSRPPRLPRPRPRPSEQPRP | -0.0884 |
| RRIRSRPPRLPRPRPRPSGFPRP | 0.0519 |
| RRIRSRPPRLPRPRPRPSGMPRP | -0.311 |

| Sequence | shrunken log2 fold change |
| --- | --- |
| RRIRSRPPRLPRPRPRPSHMPRP | -0.993 |
| RRIRSRPPRLPRPRPRPSHQPRP | -0.284 |
| RRIRSRPPRLPRPRPRPSKIPRP | -0.378 |
| RRIRSRPPRLPRPRPRPSLLPRP | -0.146 |
| RRIRSRPPRLPRPRPRPSMGPRP | -0.0521 |
| RRIRSRPPRLPRPRPRPSMMPRP | -0.105 |
| RRIRSRPPRLPRPRPRPSMRPRP | 0.369 |
| RRIRSRPPRLPRPRPRPSPAPRP | 0.242 |
| RRIRSRPPRLPRPRPRPSQEPRP | -0.26 |
| RRIRSRPPRLPRPRPRPSQGPRP | -0.252 |
| RRIRSRPPRLPRPRPRPSQLPRP | -0.302 |
| RRIRSRPPRLPRPRPRPSQSPRP | -0.242 |
| RRIRSRPPRLPRPRPRPSRAPRP | 0.281 |
| RRIRSRPPRLPRPRPRPSSNPRP | -0.872 |
| RRIRSRPPRLPRPRPRPSTYPRP | -0.405 |
| RRIRSRPPRLPRPRPRPSVMPRP | -0.391 |
| RRIRSRPPRLPRPRPRPSWHPRP | -0.206 |
| RRIRSRPPRLPRPRPRPSWSPRP | -0.0102 |
| RRIRSRPPRLPRPRPRPSYFPRP | -0.687 |
| RRIRSRPPRLPRPRPRPTAPPRP | 0.317 |
| RRIRSRPPRLPRPRPRPTDIPRP | -0.489 |
| RRIRSRPPRLPRPRPRPTEIPRP | -0.0163 |
| RRIRSRPPRLPRPRPRPTFQPRP | 0.0282 |
| RRIRSRPPRLPRPRPRPTGGPRP | 0.259 |
| RRIRSRPPRLPRPRPRPTGWPRP | 1.01 |

| Sequence | shrunken log2 fold change |
| --- | --- |
| RRIRSRPPRLPRPRPRPTHHPRP | 0.189 |
| RRIRSRPPRLPRPRPRPTIYPRP | -0.405 |
| RRIRSRPPRLPRPRPRPTLYPRP | 0.0585 |
| RRIRSRPPRLPRPRPRPTNTPRP | 0.0794 |
| RRIRSRPPRLPRPRPRPTPDPRP | 0.441 |
| RRIRSRPPRLPRPRPRPTPGPRP | 0.451 |
| RRIRSRPPRLPRPRPRPTPMPRP | 0.61 |
| RRIRSRPPRLPRPRPRPTPYPRP | -0.26 |
| RRIRSRPPRLPRPRPRPTQLPRP | 0.249 |
| RRIRSRPPRLPRPRPRPTQYPRP | -0.0116 |
| RRIRSRPPRLPRPRPRPTRTPRP | 0.386 |
| RRIRSRPPRLPRPRPRPTSAPRP | 0.321 |
| RRIRSRPPRLPRPRPRPTTHPRP | 0.0655 |
| RRIRSRPPRLPRPRPRPTTQPRP | 0.22 |
| RRIRSRPPRLPRPRPRPTTRPRP | 0.222 |
| RRIRSRPPRLPRPRPRPTVFPRP | 0.222 |
| RRIRSRPPRLPRPRPRPTWIPRP | -0.38 |
| RRIRSRPPRLPRPRPRPTYRPRP | -0.195 |
| RRIRSRPPRLPRPRPRPVAPPRP | 0.397 |
| RRIRSRPPRLPRPRPRPVCRPRP | 0.199 |
| RRIRSRPPRLPRPRPRPVDMPRP | 0.0294 |
| RRIRSRPPRLPRPRPRPVDVPRP | 0.126 |
| RRIRSRPPRLPRPRPRPVEPPRP | -0.0608 |
| RRIRSRPPRLPRPRPRPVERPRP | 0.187 |
| RRIRSRPPRLPRPRPRPVETPRP | 0.00492 |
